# From patent US6518415 (LUDWIG INSTITUTE FOR CANCER RESEARCH, dated 2003)
# Changes are numbered by the printed parent chain.
# B1: murine monoclonal antibody 3S193 (antibody, V domains shown)
# VH: EVKLVESGGGLVQPGGSLKLSCATSGFTFSDYYMYWVRQTPEKRLEWVAYMSNVGAITDYPDTVKGRFTISRDNAKSTLYLQMSRLRSEDTAMYYCARGTRDGSWFAYWGQGTLVTVSA
# VL: DVLMTQTPLSLPVSLGDQASISCRSSQRIVHSNGNTYLEWYLQKPGQSPKLLIYKVSNRFSGVPDRFSGSGSGTDFTLKISRVEAEDLGVYYCFQGSHVPFTFGSGTKLEIK
# notes: The N-terminal residues of the VK in the listing are dictated by the VK10BACK primer; also called murine 3S193
# B2: humanized 3S193 antibody HuVH/HuVK (antibody, V domains shown)
# VH: EVQLVESGGGVVQPGRSLRLSCSSSGFTFSDYYMYWVRQAPGKGLEWVAYMSNVGAITDYPDTVKGRFTISRDNSKNTLFLQMDSLRPEDTGVYFCARGTRDGSWFAYWGQGTPVTVSS
# VL: DIQMTQSPSSLSASVGDRVTITCRSSQRIVHSNGNTYLEWYQQTPGKAPKLLIYKVSNRFSGVPSRFSGSGSGTDYTFTISSLQPEDIATYYCFQGSHVPFTFGQGTKLQIT
# notes: also called 3S193 HuVH/HuVK
# B3: humanized 3S193 antibody HuVHA/HuVKF (antibody, V domains shown)
# VH: B2 VH with S75A
# VL: B2 VL with Y76F
# B4: humanized 3S193 antibody HuVHAS/HuVKF (antibody, V domains shown)
# VH: B2 VH with S75A, N77S
# VL: B2 VL with Y76F
# B5: humanized 3S193 antibody HuVHASY/HuVKF (antibody, V domains shown)
# VH: B2 VH with S75A, N77S, F80Y
# VL: B2 VL with Y76F
# notes: also called 3S193HuVHASY
# Experiments:
# HSA [1] = molecular target: T1, HSA (UniProt P02768 25-609); assay: ELISA, HSA dried on Terasaki plates, Experiment A
# Method: (§1) The plates were blocked for 1 hour at room temperature using PBS/3% BSA and washed three times with PBS. Serial dilutions of test antibodies in PBS/3% BSA were applied to the wells and the plates incubated for 1 hour before washing as above. Suitable anti-murine antibody or anti-human antibody alkaline phosphatase-conjugated antibodies were diluted in PBS/3% BSA and incubated in the wells for 1.5 h. After washing, colour was developed using diethanolamine and p-nitrophenyl phosphate at 37° C. for about 20 min and the absorbances measured at 405 mn.
# HSA [2] = molecular target: T1, HSA; assay: ELISA, HSA dried on Terasaki plates, Experiment B
# Method: as §1
# T1 sequence (P02768 25-609): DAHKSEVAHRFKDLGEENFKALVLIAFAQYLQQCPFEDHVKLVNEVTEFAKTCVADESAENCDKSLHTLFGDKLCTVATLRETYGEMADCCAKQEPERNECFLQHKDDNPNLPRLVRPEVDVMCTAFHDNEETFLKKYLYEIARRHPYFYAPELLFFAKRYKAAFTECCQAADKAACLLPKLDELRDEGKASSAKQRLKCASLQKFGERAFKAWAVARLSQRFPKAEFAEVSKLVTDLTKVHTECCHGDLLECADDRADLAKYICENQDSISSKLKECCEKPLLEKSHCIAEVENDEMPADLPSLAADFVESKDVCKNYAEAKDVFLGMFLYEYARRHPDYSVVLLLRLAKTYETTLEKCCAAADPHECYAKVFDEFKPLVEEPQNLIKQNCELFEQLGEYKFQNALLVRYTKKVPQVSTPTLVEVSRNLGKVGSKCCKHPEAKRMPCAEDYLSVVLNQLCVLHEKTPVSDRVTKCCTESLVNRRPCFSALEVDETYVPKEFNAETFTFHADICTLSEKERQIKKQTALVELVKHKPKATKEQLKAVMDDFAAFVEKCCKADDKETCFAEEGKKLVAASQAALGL
binder,measurement,setting,value
B1,binding result,HSA [1],no binding (tested: 100 µg/ml (highest concentration tested))
B2,binding result,HSA [1],no binding (tested: 100 µg/ml (highest concentration tested))
B3,binding result,HSA [2],no binding (tested: 100 µg/ml (highest concentration tested))
B4,binding result,HSA [2],no binding (tested: 100 µg/ml (highest concentration tested))
B5,binding result,HSA [2],no binding (tested: 100 µg/ml (highest concentration tested))
